# Where no end group is shown, it is not given here. Me3 = trimethyl-lysine
# T1: PHD finger of yeast Bye1 (Bye1-PHD), aa 47-134 (S. cerevisiae, UniProt P36106 47-134)
# T1 sequence (looked up): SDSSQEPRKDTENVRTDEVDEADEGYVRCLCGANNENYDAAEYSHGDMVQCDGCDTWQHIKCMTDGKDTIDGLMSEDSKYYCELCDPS
# How the values were obtained:
# [1] = target: PHD finger of Drosophila PPS (PPS-PHD), wild type, as used in NMR and fluorescence (Drosophila); assay: NMR titration
# [2] = target: PHD finger of Drosophila PPS (PPS-PHD), wild type, as used in NMR and fluorescence (Drosophila); assay: other fluorescence titration
# [3] = target: PHD finger of Drosophila PPS (PPS-PHD), wild type, as used in NMR and fluorescence (Drosophila); assay: other fluorescence titration; remark: listed apart in the source
# [4] = target: PHD finger of Drosophila PPS (PPS-PHD), wild type, as used in NMR and fluorescence (Drosophila); assay: other fluorescence titration; remark: listed apart in the source
# PPS-PHD = PPS-PHD (Drosophila melanogaster, UniProt Q9VG78); assay: 1H,15N HSQC NMR titration, PPS-PHD; format: binding; conditions: pH 6.9, H3 peptide residues 1-12, 298K
# Sequence of PPS-PHD (Q9VG78 1-2016): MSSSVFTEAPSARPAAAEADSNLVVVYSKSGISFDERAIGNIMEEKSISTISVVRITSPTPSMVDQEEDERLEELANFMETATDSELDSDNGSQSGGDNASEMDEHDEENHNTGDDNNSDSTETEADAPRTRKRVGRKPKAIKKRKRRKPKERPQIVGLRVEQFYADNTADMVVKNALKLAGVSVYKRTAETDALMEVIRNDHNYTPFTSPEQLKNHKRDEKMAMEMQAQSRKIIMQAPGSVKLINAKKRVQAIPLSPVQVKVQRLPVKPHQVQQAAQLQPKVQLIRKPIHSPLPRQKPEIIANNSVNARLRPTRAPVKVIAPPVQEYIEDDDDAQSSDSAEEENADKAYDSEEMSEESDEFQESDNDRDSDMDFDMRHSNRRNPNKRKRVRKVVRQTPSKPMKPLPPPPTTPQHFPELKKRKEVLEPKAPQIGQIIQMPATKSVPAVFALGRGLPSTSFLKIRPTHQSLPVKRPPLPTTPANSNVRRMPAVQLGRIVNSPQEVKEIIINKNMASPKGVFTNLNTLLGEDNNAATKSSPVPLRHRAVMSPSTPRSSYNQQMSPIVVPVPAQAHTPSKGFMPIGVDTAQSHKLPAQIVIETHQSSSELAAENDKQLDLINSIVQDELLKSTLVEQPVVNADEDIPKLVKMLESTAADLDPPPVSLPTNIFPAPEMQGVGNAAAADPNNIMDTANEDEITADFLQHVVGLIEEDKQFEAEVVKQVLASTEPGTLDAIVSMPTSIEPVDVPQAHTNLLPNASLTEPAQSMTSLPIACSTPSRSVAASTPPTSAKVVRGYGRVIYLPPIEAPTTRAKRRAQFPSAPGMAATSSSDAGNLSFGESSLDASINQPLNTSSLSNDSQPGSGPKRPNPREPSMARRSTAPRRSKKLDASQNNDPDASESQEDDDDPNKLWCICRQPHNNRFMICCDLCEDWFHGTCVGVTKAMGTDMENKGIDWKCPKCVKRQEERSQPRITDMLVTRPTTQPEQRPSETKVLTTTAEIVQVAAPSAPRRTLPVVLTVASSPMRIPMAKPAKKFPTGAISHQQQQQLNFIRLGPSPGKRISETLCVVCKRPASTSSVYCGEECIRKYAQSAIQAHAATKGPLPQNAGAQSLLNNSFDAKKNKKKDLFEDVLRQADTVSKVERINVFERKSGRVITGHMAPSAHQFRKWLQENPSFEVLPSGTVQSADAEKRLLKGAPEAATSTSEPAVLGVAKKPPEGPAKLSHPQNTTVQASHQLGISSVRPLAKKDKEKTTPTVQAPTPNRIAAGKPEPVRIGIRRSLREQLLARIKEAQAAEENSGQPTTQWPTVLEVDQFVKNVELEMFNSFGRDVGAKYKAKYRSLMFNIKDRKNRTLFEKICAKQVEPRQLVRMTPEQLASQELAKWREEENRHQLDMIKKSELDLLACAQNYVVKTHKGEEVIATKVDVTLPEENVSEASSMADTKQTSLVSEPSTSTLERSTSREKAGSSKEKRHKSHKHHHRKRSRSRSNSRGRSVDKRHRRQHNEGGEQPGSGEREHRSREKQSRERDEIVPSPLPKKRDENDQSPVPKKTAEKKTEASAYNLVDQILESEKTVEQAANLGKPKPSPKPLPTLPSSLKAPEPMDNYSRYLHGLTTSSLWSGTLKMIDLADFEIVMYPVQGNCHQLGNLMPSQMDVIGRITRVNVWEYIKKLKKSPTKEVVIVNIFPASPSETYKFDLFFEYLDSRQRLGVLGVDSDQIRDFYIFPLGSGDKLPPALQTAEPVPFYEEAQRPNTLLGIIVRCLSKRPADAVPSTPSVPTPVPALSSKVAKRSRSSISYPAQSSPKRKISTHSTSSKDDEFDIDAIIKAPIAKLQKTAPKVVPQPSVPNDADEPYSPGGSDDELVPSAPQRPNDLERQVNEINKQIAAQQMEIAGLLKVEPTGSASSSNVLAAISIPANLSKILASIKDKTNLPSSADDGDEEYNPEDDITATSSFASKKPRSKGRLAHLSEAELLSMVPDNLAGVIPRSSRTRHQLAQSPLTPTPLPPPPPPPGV
# [5] = target: T1, PHD finger of yeast Bye1 (Bye1-PHD), aa …; assay: other fluorescence titration
molecule,measurement,setting,value
histone H3K4me1 peptide (residues 1-12 of H3) (from UniProt P68431 2-13),Kd,[1],230 µM
histone H3K4me3 peptide (residues 1-12 of H3) (from UniProt P68431 2-13),Kd,[2],3.6 µM
same,Kd,[3],17 µM
same,Kd,[4],1.9 µM
"H3K4me0: H3K4me0 peptide (1–12 aa), unmethylated histone H3 tail, Synpeptide","Binding by NMR chemical shift perturbations (CSPs), in words",PPS-PHD,no CSPs in PPS-PHD were seen
same,"Recognition of unmethylated histone H3 tail, in words",PPS-PHD; NMR,does not recognize unmethylated histone H3 tail at all
"ARTK(Me3)QTARKSTG (peptide, UniProt P68431 2-13, looked up) [histone H3K4me3 peptide (residues 1-12 of H3)]",binding result,[5],binds

# Reference: PMC5679713 (Structure (London, England : 1993), 2017)
